This passage reports concentration of peptide immunogen that inhibited antibody binding to the blot bands results from US20020137904A1.

This assay has as its target rabbit anti-CS197 peptide antiserum raised against unconjugated peptide SEQUENCE ID NO 19. Kind of assay: Western blot competition; antiserum pre-incubated overnight with peptide immunogen. (In general: Immunoblotting shows a protein as a band on a membrane.)

Consider LPGTKAWMETEDTLGRVLSPEPDHDSLYHPPPEED [CS 197 synthetic peptide SEQUENCE ID NO 19], for which the concentration of peptide immunogen that inhibited antibody binding to the blot bands was 2.5 FM.
